Columns and labels:
[1] = biological target: T1, 5HT3a (Homo sapiens, UniProt P46098); assay: Ion channel panel (IonWorks Barracuda): 5HT3a; type: cell-based
T1 construct: host or cells: HEK293 or CHO
T1 sequence (P46098 whole entry, looked up): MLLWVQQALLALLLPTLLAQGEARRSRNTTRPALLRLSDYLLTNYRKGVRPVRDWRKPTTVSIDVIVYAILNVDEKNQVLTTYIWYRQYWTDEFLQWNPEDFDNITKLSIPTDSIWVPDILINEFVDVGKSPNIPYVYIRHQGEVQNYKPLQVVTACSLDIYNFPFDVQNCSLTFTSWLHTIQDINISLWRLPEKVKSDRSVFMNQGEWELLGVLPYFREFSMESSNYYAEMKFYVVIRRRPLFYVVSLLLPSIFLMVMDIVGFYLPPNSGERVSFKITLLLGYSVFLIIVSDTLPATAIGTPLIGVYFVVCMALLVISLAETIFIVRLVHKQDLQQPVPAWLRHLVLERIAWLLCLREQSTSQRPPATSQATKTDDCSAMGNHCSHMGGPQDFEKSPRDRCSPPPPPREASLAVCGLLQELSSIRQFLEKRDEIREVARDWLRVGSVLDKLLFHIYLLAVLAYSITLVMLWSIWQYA
In short: (§1)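 Peptides were tested in duplicate at final 20 μM and 200 nM, with concentration set by amino acid analysis, in HEPES-buffered saline. They were applied for at least 5 min to HEK293 or CHO cells transfected with each channel. Currents were expressed as % inhibition, 1-(Ipeptide/Icontrol)×100, or % activation, Ipeptide/Icontrol×100, against a channel-matched reference compound.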

[2] = biological target: T2, α3β4 (Homo sapiens, UniProt P30926+P32297); assay: Ion channel panel (IonWorks Barracuda): α3β4; type: cell-based; settings: 100% = no change, <100% = inhibition
T2 construct: host or cells: HEK293 or CHO
In short: as §1

[3] = biological target: T3, α4β2 (Homo sapiens, UniProt P17787+P43681); assay: Ion channel panel (IonWorks Barracuda): α4β2; type: cell-based; settings: 100% = no change, <100% = inhibition
T3 construct: host or cells: HEK293 or CHO
In short: as §1

[4] = biological target: T4, Cav2.1 (Homo sapiens, UniProt O00555); assay: cell-based; settings: 100% = no change, <100% = inhibition
T4 construct: host or cells: HEK293 or CHO
In short: as §1

[5] = biological target: T5, Cav2.2 (Homo sapiens, UniProt Q00975); assay: cell-based; settings: 100% = no change, <100% = inhibition
T5 construct: host or cells: HEK293 or CHO
In short: as §1

[6] = biological target: T6, Kv2.1 (Homo sapiens, UniProt Q14721); assay: cell-based; settings: 100% = no change, <100% = inhibition
T6 construct: host or cells: HEK293 or CHO
In short: as §1

[7] = tested on: GABA; assay: Ion channel panel (IonWorks Barracuda): GABA; type: cell-based; settings: 100% = no change, <100% = inhibition
In short: as §1

[8] = biological target: Nav1.5 (Homo sapiens, UniProt Q14524); assay: in vitro; settings: 100% = no change; for Activity of Nav1.5 with peptide, expressed as a percentage of the reference compound: peptide at 0.2 μM; for Activity of Nav1.5 with peptide (percentage of the reference compound): peptide at 20 μM
In short: as §1

[9] = biological target: hERG (Homo sapiens, UniProt Q12809); assay: in vitro; settings: 100% = no change, <100% = inhibition
In short: as §1

[10] = biological target: T7, Kir2.1 (Homo sapiens, UniProt P63252); assay: Ion channel panel (IonWorks Barracuda): Kir2.1; type: cell-based; settings: 100% = no change, <100% = inhibition
T7 construct: host or cells: HEK293 or CHO
In short: as §1

[11] = biological target: T8, Kv1.1 (Homo sapiens, UniProt Q09470); assay: cell-based; type: cell-based; settings: 100% = no change, <100% = inhibition
T8 construct: host or cells: HEK293 or CHO
In short: as §1

[12] = biological target: T9, Kv1.2 (Homo sapiens, UniProt P16389); assay: cell-based; type: cell-based; settings: 100% = no change, <100% = inhibition
T9 construct: host or cells: HEK293 or CHO
In short: as §1

[13] = biological target: T10, Kv1.3 (Homo sapiens, UniProt P22001); assay: cell-based; type: cell-based; settings: 100% = no change, <100% = inhibition
T10 construct: host or cells: HEK293 or CHO
In short: as §1

[14] = biological target: T11, Nav1.7 (Homo sapiens, UniProt Q15858); assay: cell-based; type: cell-based; settings: 100% = no change; for Activity of Nav1.7 with peptide, expressed as a percentage of the reference compound: peptide at 0.2 μM; for Activity of Nav1.7 with peptide (percentage of the reference compound): peptide at 20 μM
T11 construct: host or cells: HEK293 or CHO

[15] = biological target: T12, NR2A (Homo sapiens, UniProt Q12879); assay: Ion channel panel (IonWorks Barracuda): NR2A; type: cell-based; settings: 100% = no change, <100% = inhibition
T12 construct: host or cells: HEK293 or CHO
In short: as §1

[16] = biological target: T13, NR2B (Homo sapiens, UniProt Q13224); assay: Ion channel panel (IonWorks Barracuda): NR2B; type: cell-based; settings: 100% = no change, <100% = inhibition
T13 construct: host or cells: HEK293 or CHO
In short: as §1

[17] = biological target: T14, TRPA1 (Homo sapiens, UniProt O75762); assay: Ion channel panel (IonWorks Barracuda): TRPA1; type: cell-based; settings: 100% = no change, <100% = inhibition
T14 construct: host or cells: HEK293 or CHO
In short: as §1

[18] = biological target: T15, TRPV1 (Homo sapiens, UniProt Q8NER1); assay: Ion channel panel (IonWorks Barracuda): TRPV1; type: cell-based; settings: 100% = no change, <100% = inhibition
T15 construct: host or cells: HEK293 or CHO
In short: as §1

[19] = first of two Nav1.5 columns (probably TP1)
[20] = second of two Nav1.5 columns (probably TP2)
[21] = first of two Nav1.7 columns (probably TP1)
[22] = second of two Nav1.7 columns (probably TP2)

Nav1.5, sequence (Q14524 whole entry): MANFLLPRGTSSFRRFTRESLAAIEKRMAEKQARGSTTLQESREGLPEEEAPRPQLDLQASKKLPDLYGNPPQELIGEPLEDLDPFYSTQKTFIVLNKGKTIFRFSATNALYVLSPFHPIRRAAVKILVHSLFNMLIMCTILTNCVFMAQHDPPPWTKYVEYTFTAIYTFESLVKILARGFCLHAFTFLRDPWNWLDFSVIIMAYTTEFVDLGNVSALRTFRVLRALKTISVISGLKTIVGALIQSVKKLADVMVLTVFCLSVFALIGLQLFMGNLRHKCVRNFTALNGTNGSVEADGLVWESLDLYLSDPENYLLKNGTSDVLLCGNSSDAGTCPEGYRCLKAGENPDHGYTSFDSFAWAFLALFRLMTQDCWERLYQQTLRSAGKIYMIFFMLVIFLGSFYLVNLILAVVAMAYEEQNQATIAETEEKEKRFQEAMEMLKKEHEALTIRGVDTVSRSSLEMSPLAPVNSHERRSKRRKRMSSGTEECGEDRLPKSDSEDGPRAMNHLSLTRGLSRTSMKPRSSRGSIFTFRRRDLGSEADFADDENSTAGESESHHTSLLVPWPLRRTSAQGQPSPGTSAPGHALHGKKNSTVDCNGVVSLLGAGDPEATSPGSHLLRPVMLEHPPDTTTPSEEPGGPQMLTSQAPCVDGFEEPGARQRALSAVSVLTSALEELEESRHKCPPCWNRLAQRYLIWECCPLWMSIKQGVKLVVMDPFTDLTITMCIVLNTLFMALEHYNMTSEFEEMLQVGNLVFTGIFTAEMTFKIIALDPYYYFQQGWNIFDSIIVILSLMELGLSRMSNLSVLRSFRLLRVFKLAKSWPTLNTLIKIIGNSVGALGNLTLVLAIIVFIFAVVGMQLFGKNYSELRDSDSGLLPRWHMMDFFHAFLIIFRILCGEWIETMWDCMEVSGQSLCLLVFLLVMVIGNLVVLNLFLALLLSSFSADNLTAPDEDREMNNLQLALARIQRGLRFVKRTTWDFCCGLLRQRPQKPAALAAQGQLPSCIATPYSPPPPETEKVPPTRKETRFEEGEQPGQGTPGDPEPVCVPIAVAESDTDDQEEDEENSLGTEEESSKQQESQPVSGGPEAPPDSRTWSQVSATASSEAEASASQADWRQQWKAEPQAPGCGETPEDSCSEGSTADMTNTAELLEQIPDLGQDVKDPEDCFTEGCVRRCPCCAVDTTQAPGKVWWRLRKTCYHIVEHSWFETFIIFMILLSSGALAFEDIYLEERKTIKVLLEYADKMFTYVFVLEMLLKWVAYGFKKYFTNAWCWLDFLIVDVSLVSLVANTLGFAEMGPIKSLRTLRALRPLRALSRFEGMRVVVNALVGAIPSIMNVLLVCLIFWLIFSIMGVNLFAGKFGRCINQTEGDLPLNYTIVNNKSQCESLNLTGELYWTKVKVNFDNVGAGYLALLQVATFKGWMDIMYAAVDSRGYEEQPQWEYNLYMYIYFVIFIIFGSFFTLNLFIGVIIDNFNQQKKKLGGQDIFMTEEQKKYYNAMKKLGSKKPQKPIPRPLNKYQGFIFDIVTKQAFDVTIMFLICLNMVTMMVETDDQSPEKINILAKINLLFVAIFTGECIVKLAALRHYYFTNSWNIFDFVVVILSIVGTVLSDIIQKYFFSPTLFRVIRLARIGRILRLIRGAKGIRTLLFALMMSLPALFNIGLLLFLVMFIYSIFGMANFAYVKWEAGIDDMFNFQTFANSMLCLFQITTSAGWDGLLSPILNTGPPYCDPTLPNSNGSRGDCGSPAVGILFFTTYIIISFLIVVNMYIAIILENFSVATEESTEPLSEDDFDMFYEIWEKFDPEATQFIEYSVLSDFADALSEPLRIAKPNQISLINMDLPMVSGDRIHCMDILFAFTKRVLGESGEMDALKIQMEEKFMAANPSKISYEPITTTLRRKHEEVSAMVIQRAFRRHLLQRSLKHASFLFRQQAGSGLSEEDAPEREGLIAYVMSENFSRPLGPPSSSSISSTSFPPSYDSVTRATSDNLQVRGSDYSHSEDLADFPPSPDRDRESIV
T11 sequence (Q15858 whole entry): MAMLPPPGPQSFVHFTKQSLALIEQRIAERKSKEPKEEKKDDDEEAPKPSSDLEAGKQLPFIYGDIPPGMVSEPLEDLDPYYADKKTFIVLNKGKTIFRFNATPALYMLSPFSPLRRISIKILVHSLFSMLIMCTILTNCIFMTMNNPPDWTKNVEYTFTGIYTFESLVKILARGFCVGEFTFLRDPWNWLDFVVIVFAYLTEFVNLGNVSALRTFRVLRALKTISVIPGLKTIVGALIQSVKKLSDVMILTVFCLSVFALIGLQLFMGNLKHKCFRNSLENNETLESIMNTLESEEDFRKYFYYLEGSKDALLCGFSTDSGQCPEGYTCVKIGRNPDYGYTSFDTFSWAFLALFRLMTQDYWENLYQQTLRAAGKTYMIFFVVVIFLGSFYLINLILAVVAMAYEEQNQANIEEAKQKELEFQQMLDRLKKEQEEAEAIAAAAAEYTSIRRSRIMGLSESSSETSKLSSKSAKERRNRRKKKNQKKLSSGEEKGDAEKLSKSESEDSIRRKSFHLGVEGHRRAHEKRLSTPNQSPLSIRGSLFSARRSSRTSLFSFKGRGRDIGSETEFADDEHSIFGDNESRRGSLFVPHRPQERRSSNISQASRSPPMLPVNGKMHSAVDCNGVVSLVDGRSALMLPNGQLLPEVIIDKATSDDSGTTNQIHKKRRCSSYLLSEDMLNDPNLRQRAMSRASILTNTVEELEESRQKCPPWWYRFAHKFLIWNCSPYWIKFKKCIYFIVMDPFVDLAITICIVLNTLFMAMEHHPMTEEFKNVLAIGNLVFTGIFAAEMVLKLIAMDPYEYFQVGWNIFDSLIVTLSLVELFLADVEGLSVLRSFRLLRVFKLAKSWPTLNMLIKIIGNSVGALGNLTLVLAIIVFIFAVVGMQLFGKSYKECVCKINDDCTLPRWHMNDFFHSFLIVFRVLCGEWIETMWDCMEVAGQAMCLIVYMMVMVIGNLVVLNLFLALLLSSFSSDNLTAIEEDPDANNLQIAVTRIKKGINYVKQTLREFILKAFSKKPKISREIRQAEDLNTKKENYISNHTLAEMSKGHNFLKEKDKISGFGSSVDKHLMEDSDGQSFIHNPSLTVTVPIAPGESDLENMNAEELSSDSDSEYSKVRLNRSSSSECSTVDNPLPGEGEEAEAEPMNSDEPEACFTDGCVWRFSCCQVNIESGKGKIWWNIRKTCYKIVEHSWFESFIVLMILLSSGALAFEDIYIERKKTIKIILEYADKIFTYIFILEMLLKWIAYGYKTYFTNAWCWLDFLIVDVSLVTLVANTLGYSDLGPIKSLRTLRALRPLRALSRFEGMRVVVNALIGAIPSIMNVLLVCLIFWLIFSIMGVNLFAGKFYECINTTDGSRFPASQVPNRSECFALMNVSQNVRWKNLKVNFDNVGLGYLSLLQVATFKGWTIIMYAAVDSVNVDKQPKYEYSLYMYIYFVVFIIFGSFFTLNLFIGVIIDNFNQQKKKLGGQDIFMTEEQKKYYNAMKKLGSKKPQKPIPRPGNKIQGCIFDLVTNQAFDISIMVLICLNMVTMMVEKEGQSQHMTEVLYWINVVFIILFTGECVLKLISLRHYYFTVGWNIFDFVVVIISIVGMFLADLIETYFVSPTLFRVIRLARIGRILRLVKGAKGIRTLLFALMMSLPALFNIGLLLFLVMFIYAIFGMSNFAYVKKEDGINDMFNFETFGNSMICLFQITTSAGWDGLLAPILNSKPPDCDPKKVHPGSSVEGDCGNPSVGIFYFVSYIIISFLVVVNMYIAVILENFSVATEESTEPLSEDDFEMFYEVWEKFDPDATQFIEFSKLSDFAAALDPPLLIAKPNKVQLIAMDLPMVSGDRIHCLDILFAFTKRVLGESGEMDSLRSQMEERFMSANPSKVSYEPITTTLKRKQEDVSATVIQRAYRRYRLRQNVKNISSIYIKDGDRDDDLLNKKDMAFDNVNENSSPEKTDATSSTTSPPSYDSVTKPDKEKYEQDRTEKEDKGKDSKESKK
T7 sequence (P63252 whole entry): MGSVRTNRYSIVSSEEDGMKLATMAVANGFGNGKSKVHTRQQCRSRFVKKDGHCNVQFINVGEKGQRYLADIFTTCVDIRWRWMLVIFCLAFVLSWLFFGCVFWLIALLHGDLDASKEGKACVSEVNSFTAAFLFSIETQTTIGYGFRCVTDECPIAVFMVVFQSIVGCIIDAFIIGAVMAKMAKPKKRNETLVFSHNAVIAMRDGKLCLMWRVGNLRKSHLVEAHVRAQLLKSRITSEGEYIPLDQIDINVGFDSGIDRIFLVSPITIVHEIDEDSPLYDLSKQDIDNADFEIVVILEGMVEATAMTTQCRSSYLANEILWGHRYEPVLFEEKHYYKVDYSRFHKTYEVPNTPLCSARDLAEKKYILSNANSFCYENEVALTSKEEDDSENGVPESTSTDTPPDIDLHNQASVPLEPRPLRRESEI
T8 sequence (Q09470 whole entry): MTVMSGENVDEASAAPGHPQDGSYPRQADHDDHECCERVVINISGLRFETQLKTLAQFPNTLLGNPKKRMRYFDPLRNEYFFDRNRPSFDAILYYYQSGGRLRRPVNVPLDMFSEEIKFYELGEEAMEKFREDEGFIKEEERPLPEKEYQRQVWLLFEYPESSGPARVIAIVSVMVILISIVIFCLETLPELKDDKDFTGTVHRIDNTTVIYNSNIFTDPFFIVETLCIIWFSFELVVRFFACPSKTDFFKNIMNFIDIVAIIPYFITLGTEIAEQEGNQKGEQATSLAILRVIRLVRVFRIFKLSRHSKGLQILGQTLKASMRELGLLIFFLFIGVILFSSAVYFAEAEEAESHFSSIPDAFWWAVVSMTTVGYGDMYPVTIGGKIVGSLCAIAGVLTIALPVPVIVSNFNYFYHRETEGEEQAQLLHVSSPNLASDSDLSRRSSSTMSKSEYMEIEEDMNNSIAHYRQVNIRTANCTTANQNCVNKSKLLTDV

## 10 (GSQVQTNVKCQGGSCASVCRREIGVAAGKCINGKCVCYRN) [compound 10]
[1]
  Activity of 5HT3a with peptide (percentage of the reference compound): 104%
  Activity of 5HT3a with peptide, expressed as a percentage of the reference compound: 90%
[2]; peptide at 0.2 μM
  Activity of a3b4 with peptide, expressed as a percentage of the reference compound: 97%
[2]; peptide at 20 μM
  Activity of a3b4 with peptide (percentage of the reference compound): 104%
[3]; peptide at 0.2 μM
  Activity of a4b2 with peptide, expressed as a percentage of the reference compound: 96%
[3]; peptide at 20 μM
  Activity of a4b2 with peptide (percentage of the reference compound): 94%
[4]; peptide at 0.2 μM
  Activity of Cav2.1 with peptide, expressed as a percentage of the reference compound: 104%
[4]; peptide at 20 μM
  Activity of Cav2.1 with peptide (percentage of the reference compound): 96%
[5]; peptide at 0.2 μM
  Activity of Cav2.2 with peptide, expressed as a percentage of the reference compound: 98%
[5]; peptide at 20 μM
  Activity of Cav2.2 with peptide (percentage of the reference compound): 94%
[6]; peptide at 0.2 μM
  Activity of Kv2.1 with peptide, expressed as a percentage of the reference compound: 88%
[6]; peptide at 20 μM
  Activity of Kv2.1 with peptide (percentage of the reference compound): 109%
[7]; peptide at 0.2 μM
  Activity of GABA with peptide, expressed as a percentage of the reference compound: 129%
[7]; peptide at 20 μM
  Activity of GABA with peptide (percentage of the reference compound): 111%
[8]; [19]
  Activity of Nav1.5 with peptide, expressed as a percentage of the reference compound: 93%
  Activity of Nav1.5 with peptide (percentage of the reference compound): 114%
[8]; [20]
  Activity of Nav1.5 with peptide, expressed as a percentage of the reference compound: 90%
  Activity of Nav1.5 with peptide (percentage of the reference compound): 116%
[9]; peptide at 0.2 μM
  Activity of hERG with peptide, expressed as a percentage of the reference compound: 97%
[9]; peptide at 20 μM
  Activity of hERG with peptide (percentage of the reference compound): 80%
[10]; peptide at 0.2 μM
  Activity of Kir2.1 with peptide, expressed as a percentage of the reference compound: 100%
[10]; peptide at 20 μM
  Activity of Kir2.1 with peptide (percentage of the reference compound): 92%
[11]; peptide at 0.2 μM
  Activity of Kv1.1 with peptide, expressed as a percentage of the reference compound: 117%
[11]; peptide at 20 μM
  Activity of Kv1.1 with peptide (percentage of the reference compound): 84%
[12]; peptide at 0.2 μM
  Activity of Kv1.2 with peptide, expressed as a percentage of the reference compound: 135%
[12]; peptide at 20 μM
  Activity of Kv1.2 with peptide (percentage of the reference compound): 77%
[13]; peptide at 0.2 μM
  Activity of Kv1.3 with peptide, expressed as a percentage of the reference compound: 101%
[13]; peptide at 20 μM
  Activity of Kv1.3 with peptide (percentage of the reference compound): 93%
[14]; [21]
  Activity of Nav1.7 with peptide, expressed as a percentage of the reference compound: 105%
  Activity of Nav1.7 with peptide (percentage of the reference compound): 106%
[14]; [22]
  Activity of Nav1.7 with peptide, expressed as a percentage of the reference compound: 98%
  Activity of Nav1.7 with peptide (percentage of the reference compound): 90%
[15]; peptide at 0.2 μM
  Activity of NR2A with peptide, expressed as a percentage of the reference compound: 84%
[15]; peptide at 20 μM
  Activity of NR2A with peptide (percentage of the reference compound): 65%
[16]; peptide at 0.2 μM
  Activity of NR2B with peptide, expressed as a percentage of the reference compound: 82%
[16]; peptide at 20 μM
  Activity of NR2B with peptide (percentage of the reference compound): 98%
[17]; peptide at 0.2 μM
  Activity of TRPA1 with peptide, expressed as a percentage of the reference compound: 108%
[17]; peptide at 20 μM
  Activity of TRPA1 with peptide (percentage of the reference compound): 107%
[18]; peptide at 0.2 μM
  Activity of TRPV1 with peptide, expressed as a percentage of the reference compound: 111%
[18]; peptide at 20 μM
  Activity of TRPV1 with peptide (percentage of the reference compound): 98%
